Several values for one entry are separate records, joined by “and”; a condition that tells them apart may be missing. Equal values may be shown once.
Legend:
Miro1^P13V ΔTM = Miro1^P13V ΔTM (UniProt Q8IXI2); assay: mass photometry
Miro1^P13V-Strep = Miro1^P13V-Strep (UniProt Q8IXI2); assay: pull-down

UniProt Q8IXI2, sequence (Q8IXI2 whole entry P13V): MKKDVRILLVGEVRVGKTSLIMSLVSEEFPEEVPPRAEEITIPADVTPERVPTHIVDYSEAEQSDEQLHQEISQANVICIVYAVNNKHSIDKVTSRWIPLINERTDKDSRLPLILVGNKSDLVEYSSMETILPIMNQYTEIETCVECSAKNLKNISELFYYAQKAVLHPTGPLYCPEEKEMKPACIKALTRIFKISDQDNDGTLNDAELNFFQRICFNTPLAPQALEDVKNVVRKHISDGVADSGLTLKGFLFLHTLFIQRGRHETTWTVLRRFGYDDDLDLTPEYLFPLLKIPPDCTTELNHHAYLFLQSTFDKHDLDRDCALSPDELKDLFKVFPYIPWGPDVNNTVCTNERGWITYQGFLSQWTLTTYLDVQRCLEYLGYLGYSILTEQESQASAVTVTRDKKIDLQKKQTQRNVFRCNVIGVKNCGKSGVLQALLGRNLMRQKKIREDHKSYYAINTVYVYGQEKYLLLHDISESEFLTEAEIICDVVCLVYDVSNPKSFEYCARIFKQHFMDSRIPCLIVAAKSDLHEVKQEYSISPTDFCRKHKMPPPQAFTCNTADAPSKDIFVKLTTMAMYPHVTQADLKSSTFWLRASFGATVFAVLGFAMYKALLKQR

Row | percent forming dimers (Miro1^P13V ΔTM) | stoichiometry N (Miro1^P13V ΔTM) | reduction of the TRAK1:Miro1-Strep band intensity against Miro1^WT (Miro1^P13V-Strep) | Molecule
1 | 3% | 3 and 4 | – | Miro1^P13V ΔTM (from UniProt Q8IXI2 1-618) (domain or fragment)
2 | – | – | 30% | TRAK1^562-635 (domain or fragment) MSFSSRSYLPEKLQIVKPLEGSATLHHWQQLAQPHLGGILDPRPGVVTKGFRTLDVDLDEVYCLNDFEEDDTGD
